Test results reported in US6790831B2, “Systemic carnitine deficiency gene and use thereof” (Chugai Seiyaku Kabushiki Kaisha, priority 1998, dated 2004).
Where a chain is given by its changes, count along the chain named. “Also recorded” adds a separate entry of the source.

B1: wild-type mouse OCTN2: mouse OCTN2 protein, amino acid sequence SEQ ID NO:3, sodium-ion dependent carnitine transporter (protein)
chain: MRDYDEVTAFLGEWGPFQRLIFFLLSASIIPNGFNGMSIVFLAGTPEHRCLVPHTVNLSSAWRNHSIPLETKDGRQVPQKCRRYRLATIANFSELGLEPGRDVDLEQLEQESCLDGWEYDKDVFLSTIVTEWDLVCKDDWKAPLTTSLFFVGVLMGSFISGQLSDRFGRKNVLFLTMGMQTGFSFLQVFSVNFEMFTVLFVLVGMGQISNYVAAFVLGTEILSKSIRIIFATLGVCIFYAFGFMVLPLFAYFIRDWRMLLLALTVPGVLCGALWWFIPESPRWLISQGRIKEAEVIIRKAAKINGIVAPSTIFDPSELQDLNSTKPQLHHIYDLIRTRNIRVITIMSIILWLTISVGYFGLSLDTPNLHGDIYVNCFLLAAVEVPAYVLAWLLLQYLPRRYSISAALFLGGSVLLFMQLVPSELFYLSTALVMVGKFGITSAYSMVYVYTAELYPTVVRNMGVGVSSTASRLGSILSPYFVYLGAYDRFLPYILMGSLTILTAILTLFFPESFGVPLPDTIDQMLRVKGIKQWQIQSQTRMQKDGEESPTVLKSTAF
B2: mutated OCTN2: jvs mouse OCTN2 in which the 352nd leucine (CTG) is mutated to arginine (CGG) (protein, UniProt Q9Z0E8 1-557, looked up, variant L352R)
chain: B1 chain with L352R
modifications: full-length

Tested on: HEK293 cells
Experiment: carnitine transporting activity assay of mouse OCTN2 expressed from plasmid DNA in HEK293 cells
Type: cell-based
Conditions: plasmid DNA expressing the protein introduced into HEK293 cells; Mock = cDNA-non-containing vector; FIG. 3
Experimental: Another embodiment of the therapeutic drug for systemic carnitine deficiency uses a compound that enhances the activity of the OCTN2 protein as the active ingredient. Such a compound can be screened as follows. For example, a plasmid expressing the OCTN2 protein is constructed, and this is introduced into HEK293 cells by the calcium phosphate method. Radiolabeled carnitine and a test compound are added to this transformant and the carnitine transporting activity into the cells is determined. A compound that can enhance the carnitine transporting activity is selected by comparing with the activity of the OCTN2 protein in the absence of the test compound. See Japanese Patent Application Hei 9-260972 and Hei 10-156660 for the detailed method.
Next, the effect this mutation has on the carnitine transporting activity was examined. Plasmid DNA expressing wild-type mouse OCTN2, and those expressing mutated OCTN2 were separately introduced into HEK293 cells, and then, carnitine transporting ability was measured similar to the assay of human OCTN2 described in Japanese Patent Application Hei 10-156660 (FIG. 3). […] However, both proteins were confirmed to be expressed at a similar amount by a western blotting using an antibody against the c-myc epitope sequence (NH2—EQKLISEEDL—COOH; SEQ ID NO:26) added to the C terminus (FIG. 4).

Molecule	carnitine transporting activity
B1	sodium-dependent carnitine transporting activity is seen; also recorded: shows a carnitine transporting activity similar to human OCTN2
B2	absolutely no activity
